Measurements from the nanobody polyreactivity screen of Harvey et al. (2022).

Assay: yeast display, Sf9 membrane polyspecificity reagent, FACS + sequencing; frameworks hold sequencing errors
Summary of the method: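 Sorting gates, low and high (top ~1%), were placed on anti-HA fluorescence to track expression and on streptavidin fluorescence to track reagent binding. A clone's polyreactivity label is taken from the gate it came out of. The reagent was 10% biotinylated, detergent-solubilized Sf9 membrane, applied for 1 hour at 4 °C to galactose-induced yeast display cells.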

Sequence | polyreactivity (PSR sort gate)
QVQLVESGGGLVQAGGSLRLSCAASGRTFSIYVMGWYRQAPGKERELVAAITSGGRTYYADSVKGRFTISRDNAKNTVYLQMNSLKPEDTAGYYCAAGYWRPGQYYSRYNYWGQGTQVTVSS | high polyreactivity
QVQLVESGGGLVQAGGSLRLSCAASGRTFSKYAMGWYRQAPGKERELVAAISKRGDSTYYADSVKGRFTISRDNAKNTVYLQMNSLKPEDTAVYYCARDDYRAYKSYYRYGYWGQGTQVTVSS | low polyreactivity
QVQLVESGGGLVQAGGSLRLSCAASGRTFSKYAMGWYRQAPGKERELVAAISSTGGSTYYADSVKGRFTISRDNAKNTVYLQMNSLIPEDTAVYYCATEVYWFHSRAYYYWGQGSQVTVSS | high polyreactivity
QVQLVESGGGLVQAGGSLRLSCAASGRTFSKYAMGWYRQAPGKERELVASITRSGGSTNYADSVKGRFTISRDNAKNTVYLQINSLKPEDTAVYYCRRKLGRTHASGFDYWGQGTQVTVSS | low polyreactivity
QVQLVESGGGLVQAGGSLRLSCAASGRTFSKYTMGWYRQAPGKERELVAAIDRSGGSTYYADSVKGRFSISRDNAKNTVYLQMNSLKPEDTAVYYCNTGLRYYSYRRDYWGQGTQVTVSS | high polyreactivity
QVQLVESGGGLVQAGGSLRLSCAASGRTFSLDAMGWYRQAPWKERELVASITDSTGGSTYYADSVKGRFTISRDNAKNTVYLQMNSLKPEDTAVYYCAAQDSQYSDYQWWFGYWGQGTQVTVSS | low polyreactivity
QVQLVESGGGLVQAGGSLRLSCAASGRTFSLNAMGWYRQAPGKEREFVAAISSTGGSTYYADSVKGRFTISRDNAKNTVYLQMNSLKPEDTAVYYCAKRSVYRTALGRYSVAYDYWGQGTQVTVSS | high polyreactivity
QVQLVESGGGLVQAGGSLRLSCAASGRTFSLYDMGWYRQAPGKERELVAAISYSGTRTYYADSVKGRFTISRDNAKNTVYLQMNCLKPEDTAVYYCARVYTVGTGRSWRLDYWGQGTQVTVSS | high polyreactivity
QVQLVESGGGLVQAGGSLRLSCAASGRTFSPNAMGWYRQAPGKEREFVAAITWSGGGTFYADSVKGRFTISRDNAKNTVYLQMNSLKPEDTAVYYCAARLDTYQTHSVITPAALYYWGQGTQVTVSS | low polyreactivity
QVQLVESGGGLVQAGGSLRLSCAASGRTFSPYAMGWYRQAPGKERELVAAIYNGGSTYYADSVKGRFTISRDNAKNTVYLQMNSLKPEDTAVYYCAAGRKSLYRIYSEYVEFDYWGQGTQVTVSS | low polyreactivity
QVQLVESGGGLVQAGGSLRLSCAASGRTFSQYAMGWYRQAPGKERELVAPISWSGGSTYYADSVKGRFTISRDNAKNTVDLQMNSLKPEDTAVFYCAAVGKGSSRSSYPVLYDYWGQGTQVTVSS | low polyreactivity
QVQLVESGGGLVQAGGSLRLSCAASGRTFSRNAMGWYRHAPGKEWELVAAISRTGGSTYYADSVKGRFTISRDNAKKTVYLQMNSLKPEDTAVYYCAAGTWGWYAYGYWGLGTQVTVSS | high polyreactivity
QVQLVESGGGLVQAGGSLRLSCAASGRTFSRNAMGWYRQAPGKERELVAAISDGGGSTYYADSVKGRFTISRDNAKNPVYLQMNILKPEDTAVYYCAARVLDWRGDIHDSEYWGHGTQVTVSS | low polyreactivity
QVQLVESGGGLVQAGGSLRLSCAASGRTFSRNAMGWYRQAPGKERELVAAISQRGVSTYYADSVKGRFTISRDNAKNTVYLQMNSLKPEDTAVYYCNTRGTYRYDYWGQGTQVTVSS | low polyreactivity
QVQLVESGGGLVQAGGSLRLSCAASGRTFSRNAMGWYRQAPGKERELVAAISQSGGRTYYADSVKGRFTISRDNAKNTVYLQMNSLKPEDTAVYYCAAAGTRKALTEYDYWGQGTQVTLSS | high polyreactivity
QVQLVESGGGLVQAGGSLRLSCAASGRTFSRYAMGWYRPAPGKERELVAAISSSGGSTYYADSVKGRFTISRDHAKNTVYLQMNSLKPEDTAVYYCAKYFIRDNRYDYWGQGTQVTVSS | high polyreactivity
QVQLVESGGGLVQAGGSLRLSCAASGRTFSRYAMGWYRQAPGKERELVASIRSGGSTNYADSVKGRFTISRDNAKNTVYIQMNSLKPEDTAVYYCANVGRYWNPVYNSFYNFDYWGQGTQVTVSS | high polyreactivity
QVQLVESGGGLVQAGGSLRLSCAASGRTFSRYVMGWYRQAPGKERELVAAISRTGGRTYYADSVKGRFTISRDNAKNTVYLQMNSLKPEDTAVYYCNAGTVLISTYDYWGQGTQVSVSS | high polyreactivity
QVQLVESGGGLVQAGGSLRLSCAASGRTFSRYVMGWYRQAPGKERELVAGISQSGARTTYADSVKGRFTISRDNAKNTVYLQMNSLKPEDTAVYYCAAVGYGIRSYYSYDYWGQGTQVTVSS | high polyreactivity
QVQLVESGGGLVQAGGSLRLSCAASGRTFSSYAMGWYRPAPGKERELVAAITKRAGNTYYADSVKGRFTISRDNAKNTVYLQMNSLKPEDTAVYYCAAGWERFRNYNYWGQGTQVTVSS | high polyreactivity
QVQLVESGGGLVQAGGSLRLSCAASGRTFSSYAMGWYRQAPGKEREFVAAINKNGGSTFYADSVKGRFTISRDNAKNTVYFQMNSLKPEDTAVYYCNADTDWWNPYNYWGQGTQVTVST | low polyreactivity
QVQLVESGGGLVQAGGSLRLSCAASGRTFSSYAMGWYRQAPGKERELVAAINSGGSTNYADSVKGRFTISRDNAKNTVYLQMNSLKPEDTAVYYCNAVTFWGLGYDYWGQGTQVTVSS | low polyreactivity

Sequence | polyreactivity (PSR sort gate)
QVQLVESGGGLVQAGGSLRLSCAASGRTFSSYAMGWYRQAPGKERELVAAISWSGGRTYYADSVKGRFTISRDNAKNTVYLQMNSLKPEDTAVYYCAAEGDKRKYWYLYDYWGQGTQVTVSS | high polyreactivity
QVQLVESGGGLVQAGGSLRLSCAASGRTFSSYAMGWYRQEPGKERELVARINSDGGRTYYADSVKGRFTISRDNAKNTVYLQMNSLKPEDTAVYYCAKRVVRGKVDYWGQGTQVTVSS | low polyreactivity
QVQLVESGGGLVQAGGSLRLSCAASGRTFSTNDMGWYRQAPGKERELVAAIDFDSDSTYYADSVKGRFTISRDNAKNTVYLQMNSMKPEDTAVYYCAAQYFSYGESYEYWGQGTQVTVSS | low polyreactivity
QVQLVESGGGLVQAGGSLRLSCAASGRTFSTYAMGWYRQAPGKERELVATIRGSGSSTYYADSVKGRFTISRDNAKNTVYLQMNSLKPEDTAVYYCAKDNNRWRYLRYGSWGQGTQVTVSS | high polyreactivity
QVQLVESGGGLVQAGGSLRLSCAASGRTFSTYAMGWYRQSPGKERELVAAITWRGASTYYADSVKGRFTISRDYAKNTVYLQMNSLKPEDTAVYYCATDAPDRTDSDSGFDAGYDYWGQGTQVTLSS | low polyreactivity
QVQLVESGGGLVQAGGSLRLSCAASGRTFSVNAMGWYRQAPGKERELVAAISSGGGTNYADSVKGRFTISRDNAKNNVYLQMNSLKPEDTAVYYCAARTFGYPSHRKEMEYWGQGTQVTVSS | low polyreactivity
QVQLVESGGGLVQAGGSLRLSCAASGRTFSVNAMGWYRQAPGKERELVAAISWDGGSTYYADSVKGRFTISRDNAKNTDYLQMNSLKPEDTAVYYCNKDLYYAYDYWRQGTQVTVSS | low polyreactivity
QVQLVESGGGLVQAGGSLRLSCAASGRTFSVNAMGWYRQAPGKERELVAAISWSTGSTYYADSVKGRFTISRDNAKNTVYLQMNSLKPEDTAVYYCAKLYEYRRSRYRTYGYWGQGTQVTVSS | high polyreactivity
QVQLVESGGGLVQAGGSLRLSCAASGRTFSVYAMGWYRQAPGKERELVAGITSGGSTNYADSVKGRFTISRDNAKNTVYLQMNSLKPEDTAVYYCAAEDDSSTPEFDYWGQGTQVTVSS | low polyreactivity
QVQLVESGGGLVQAGGSLRLSCAASGRTFSVYDMGWYRQAPGKERELVARIRSGGSTYYADSVKGRFTISRDNAKNTVYLQMNSLKPEDTAVYYCAADGFASRWYAYYYWGQGTQVTVSS | high polyreactivity
QVQLVESGGGLVQAGGSLRLSCAASGRTFSYNAMGWYRQAPGKERELVAAITWRGSTTYYADSVKGRFTISRDNAKNTVYLQMNSLKPEDTAVYYCAADTGQPYILDYWGQGTQVTVSS | low polyreactivity
QVQLVESGGGLVQAGGSLRLSCAASGRTFSYYAIGWYRQAPGTERELVAGISYSGGTTYYADSVKGRFTISRDNAKNTVYLQMNSLKPEDTAVYYCATRYWTFSGYDYWGQGTQVTVSS | low polyreactivity
QVQLVESGGGLVQAGGSLRLSCAASGRTFSYYAMGWYREAPGNERELVAAITTGGRTYYADSVKGRFTISRDNAKNTVYLQMNSLKPEDTAVYYCAADYTVSYPYYEYYYWGQGTQVTVSS | high polyreactivity
QVQLVESGGGLVQAGGSLRLSCAASGRTFSYYAMGWYRQAPGKERELVAAISSGGSTYYADSVKGRFTISRDNAKNTVYLQMNSLKTEVSEVYYCAKSYYRYQVSSRMYYRGQGTQVTVSS | high polyreactivity
QVQLVESGGGLVQAGGSLRLSCAASGRTFSYYAMGWYRQAPGKERELVAAIYRAGRTNYADSVKGRFTISRDNAKNNVYLQMHSLKPEDTAVYYCAADLAYGRPFVSYRTRACGQGTQVTVSS | high polyreactivity
QVQLVESGGGLVQAGGSLRLSCAASGRTFSYYAMGWYRQAPGKERELVATISWSGSTYYADSVKGRFTLSRDNAKNTVYLQMNSLKPEDTAVYYCAARYRYAGWYSVWYDYWGQGTQVSVSS | high polyreactivity
QVQLVESGGGLVQAGGSLRLSCAASGRTFSYYAMGWYRQAPGKERELVAVISVSGGSTYYADSVKGRFTISRDNAKNTVYLQMNSLKPEDTAVYYCNVDLYYGYDYWGQGTQVTVSS | low polyreactivity
QVQLVESGGGLVQAGGSLRLSCAASGRTFSYYTMGWDRQAPGKERELVASITSDSSTNYADSVKGRFTISRDNAKNTVYLQMNSLKPEHTAVYYCAADHWIAPRRDYWGQGTQVTVSS | low polyreactivity
QVQLVESGGGLVQAGGSLRLSCAASGRTFTEYAMGWYSQAHGKERELVARISIGDSTYYADSVKGRFTISRDNAKNTVYLQMNSLKPEDTAVFYCNAEYSRSYRYDEGYWGQGTQVTVSS | low polyreactivity
QVQLVESGGGLVQAGGSLRLSCAASGRTFTFKAMGWYRQAPGKERELVAAMTSTGSTSYADSVKGRFTISRDNAKNTVYLQMNSLKPEDTAVYYCAKGYVIPYVHHVRPYGGEYLGQGTQVTVSS | low polyreactivity
QVQLVESGGGLVQAGGSLRLSCAASGRTFTFYTMGCYRQSPGKERELVAAITRSGGGTYYADSVKGRFTISRDNAKNTVYLQMNSLKPEDTAVYYCAAYNRNAFHWGQGTQVTVSS | high polyreactivity
